B1: recombinant human MetAP-3 purified from E. coli after thrombin cleavage of the NusA-6xHis tag (protein)
chain: SSPLNHIYLHKQSSSQQRRNFFFRRQRDISHSIVLPAAVSSAHPVPKHIKKPDYVTTGIVPDWGDSIEVKNEDQIQGLHQACQLARHVLLLAGKSLKVDMTTEEIDALVHREIISHNAYPSPLGYGGFPKSVCTSVNNVLCHGIPDSRPLQDGDIINIDVTVYYNGYHGDTSETFLVGNVDECGKKLVEVARRCRDEAIAACRAGAPFSVIGNTISHITHQNGFQVCPHFVGHGIGSYFHGHPEIWHHANDSDLPMEEGMAFTIEPIITEGSPEFKVLEDAWTVVSLDNQRSAQFEHTVLITSRGAQILTKLPHEA
B2: recombinant human MetAP-2 expressed in Sf9 insect cells (protein)
chain: AGVEEVAASGSHLNGDLDPDDREEGAASTAEEAAKKKRRKKKKSKGPSAAGEQEPDKESGASVDEVARQLERSALEDKERDEDDEDGDGDGDGATGKKKKKKKKKRGPKVQTDPPSVPICDLYPNGVFPKGQECEYPPTQDGRTAAWRTTSEEKKALDQASEEIWNDFREAAEAHRQVRKYVMSWIKPGMTMIEICEKLEDCSRKLIKENGLNAGLAFPTGCSLNNCAAHYTPNAGDTTVLQYDDICKIDFGTHISGRIIDCAFTVTFNPKYDTLLKAVKDATNTGIKCAGIDVRLCDVGEAIQEVMESYEVEIDGKTYQVKPIRNLNGHSIGQYRIHAGKTVPIVKGGEATRMEEGEVYAIETFGSTGKGVVHDDMECSHYMKNFDVGHVPIRLPRTKHLLNVINENFGTLAFCRRWLDRLGESKYLMALKNLCDLGIVDPYPPLCDIKGSYTAQFEHTILLRPTCKEVVSRGDDY

Columns and labels:
[1] = target: T1, MAS tripeptide (Met-Ala-Ser)
T1 chain: MAS

MEG tripeptide = target: T2, MEG tripeptide
T2 chain: MEG

MGG tripeptide = target: T3, MGG tripeptide
T3 chain: MGG

GGG tripeptide = target: T4, GGG tripeptide
T4 chain: GGG

IGG tripeptide = target: T5, IGG tripeptide
T5 chain: IGG

| Protein | Cleaved [1] | Km [1] [µM] | Vmax (Abs × 1000/min) (Abs × 1000/min) [1] | kcat [1] [s⁻¹] | Cleaved (MEG tripeptide) | Vmax (Abs × 1000/min) (Abs × 1000/min) (MEG tripeptide) | Cleaved (MGG tripeptide) | Vmax (Abs × 1000/min) (Abs × 1000/min) (MGG tripeptide) | Cleaved (GGG tripeptide) | Vmax (Abs × 1000/min) (Abs × 1000/min) (GGG tripeptide) | Cleaved (IGG tripeptide) | Vmax (Abs × 1000/min) (Abs × 1000/min) (IGG tripeptide) |
| --- | --- | --- | --- | --- | --- | --- | --- | --- | --- | --- | --- | --- |
| B1 | Yes | 600 | 70 | 0.06 | No | 1.1 | Yes | 134 | No | 0.7 | No | 3.1 |
| B2 |  | 300 |  | 2.3 |  |  |  |  |  |  |  |  |
